Results taken from PMC8591511, “Flexible open conformation of the AP-3 complex explains its role in cargo recruitment at the Golgi” (The Journal of Biological Chemistry, 2021).

Assays:
[1] = molecular target: T1, GFP-tagged AP-3 complex (Apl6 tagged C-terminally with mGFP) (S. cerevisiae, UniProt Q08951 1-932; P46682 1-809; P38153 1-483; P47064 1-194); assay: single-molecule TIRF microscopy on polymer-supported membranes; polymer-supported membranes (Golgi mixture with 1 mol% PI4P) with or without Arf1 (10 nM), Sec7ΔC (10 nM) and 400 μM GTPγS, or reconstituted Vam3; GFP-tagged AP-3 (2 nM) labelled with anti-GFP nanobody-Dy647; room temperature; monitored 45 min; settings: both partners purified
T1 construct: Apl5, δ-subunit of the yeast AP-3 complex; Apl6, β3-subunit of the yeast AP-3 complex; Apm3, μ3-subunit of the yeast AP-3 complex; Aps3, σ-subunit of the yeast AP-3 complex; also called GFP-AP-3; source: yeast strain with Apl6 fused to GFP, purified; labelled via anti-GFP nanobody carrying DY647 or Alexa Fluor 568; not shown: mGFP, C-terminal, kept; copies: + + +

[2] = molecular target: T1, GFP-tagged AP-3 complex (Apl6 tagged …); assay: single-molecule tracking of cargo mobility (TIRF microscopy); labelled Vam3 in polymer-supported membranes tracked before and after the addition of AP-3; without Arf1 and Sec7; settings: both partners purified

T1 sequence (Q08951 whole entry, chain 1 of 4, the tested form may be a part): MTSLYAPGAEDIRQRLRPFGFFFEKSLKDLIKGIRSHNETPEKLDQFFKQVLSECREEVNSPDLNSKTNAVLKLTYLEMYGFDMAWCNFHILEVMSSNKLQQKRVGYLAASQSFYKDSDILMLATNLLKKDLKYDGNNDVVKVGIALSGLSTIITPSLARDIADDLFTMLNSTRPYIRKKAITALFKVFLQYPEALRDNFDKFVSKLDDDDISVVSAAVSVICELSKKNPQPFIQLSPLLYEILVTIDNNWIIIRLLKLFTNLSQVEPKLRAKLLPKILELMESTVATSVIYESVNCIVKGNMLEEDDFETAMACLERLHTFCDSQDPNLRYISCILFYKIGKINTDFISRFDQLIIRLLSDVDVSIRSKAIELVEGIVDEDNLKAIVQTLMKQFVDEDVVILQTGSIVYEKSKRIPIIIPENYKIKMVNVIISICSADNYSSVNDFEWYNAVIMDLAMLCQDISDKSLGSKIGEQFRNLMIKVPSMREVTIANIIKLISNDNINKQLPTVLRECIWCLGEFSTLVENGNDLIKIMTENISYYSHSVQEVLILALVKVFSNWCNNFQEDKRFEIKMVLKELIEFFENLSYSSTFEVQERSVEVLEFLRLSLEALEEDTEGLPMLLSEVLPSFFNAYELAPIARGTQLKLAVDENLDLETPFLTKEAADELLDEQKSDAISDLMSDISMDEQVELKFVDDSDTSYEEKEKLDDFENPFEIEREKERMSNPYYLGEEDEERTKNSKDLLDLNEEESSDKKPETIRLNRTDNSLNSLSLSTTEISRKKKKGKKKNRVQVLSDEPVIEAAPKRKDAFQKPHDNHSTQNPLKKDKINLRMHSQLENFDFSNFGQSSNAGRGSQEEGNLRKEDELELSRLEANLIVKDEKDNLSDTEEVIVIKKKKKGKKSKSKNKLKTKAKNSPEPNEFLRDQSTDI
T1 sequence (P46682 whole entry, chain 2 of 4, the tested form may be a part): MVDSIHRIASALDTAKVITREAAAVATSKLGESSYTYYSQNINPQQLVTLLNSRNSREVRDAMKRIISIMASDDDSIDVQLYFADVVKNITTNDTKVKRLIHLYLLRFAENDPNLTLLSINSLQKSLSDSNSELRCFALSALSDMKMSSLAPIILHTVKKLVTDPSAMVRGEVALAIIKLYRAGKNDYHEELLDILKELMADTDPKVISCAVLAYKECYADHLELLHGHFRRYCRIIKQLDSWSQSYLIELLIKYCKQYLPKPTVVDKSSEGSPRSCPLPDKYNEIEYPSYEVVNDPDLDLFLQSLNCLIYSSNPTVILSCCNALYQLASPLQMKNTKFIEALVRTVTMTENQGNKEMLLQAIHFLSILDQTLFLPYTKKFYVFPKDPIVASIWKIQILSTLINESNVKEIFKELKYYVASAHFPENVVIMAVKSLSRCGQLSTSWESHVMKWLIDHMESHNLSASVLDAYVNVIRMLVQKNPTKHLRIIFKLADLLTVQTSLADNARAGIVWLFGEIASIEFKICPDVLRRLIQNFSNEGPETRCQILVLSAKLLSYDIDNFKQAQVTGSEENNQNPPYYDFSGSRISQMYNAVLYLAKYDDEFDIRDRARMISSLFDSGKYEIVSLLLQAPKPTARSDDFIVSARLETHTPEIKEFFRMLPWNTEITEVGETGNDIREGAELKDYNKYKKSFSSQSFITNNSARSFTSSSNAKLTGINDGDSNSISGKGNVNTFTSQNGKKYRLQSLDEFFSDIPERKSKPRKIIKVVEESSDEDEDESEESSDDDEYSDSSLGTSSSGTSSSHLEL
T1 sequence (P38153 whole entry, chain 3 of 4, the tested form may be a part): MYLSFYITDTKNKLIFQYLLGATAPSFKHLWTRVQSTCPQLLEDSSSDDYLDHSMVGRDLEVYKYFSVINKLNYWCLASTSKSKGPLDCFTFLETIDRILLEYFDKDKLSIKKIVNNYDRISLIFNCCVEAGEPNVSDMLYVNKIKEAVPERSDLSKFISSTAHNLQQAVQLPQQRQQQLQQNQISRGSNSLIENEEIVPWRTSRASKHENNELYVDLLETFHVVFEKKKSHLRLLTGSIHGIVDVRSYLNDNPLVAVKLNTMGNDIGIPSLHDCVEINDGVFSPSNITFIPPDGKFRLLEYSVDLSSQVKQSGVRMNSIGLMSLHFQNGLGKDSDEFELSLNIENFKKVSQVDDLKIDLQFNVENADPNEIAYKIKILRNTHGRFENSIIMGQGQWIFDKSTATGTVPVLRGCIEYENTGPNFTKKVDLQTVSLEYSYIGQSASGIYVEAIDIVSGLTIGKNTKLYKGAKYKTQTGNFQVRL
T1 sequence (P47064 whole entry, chain 4 of 4, the tested form may be a part): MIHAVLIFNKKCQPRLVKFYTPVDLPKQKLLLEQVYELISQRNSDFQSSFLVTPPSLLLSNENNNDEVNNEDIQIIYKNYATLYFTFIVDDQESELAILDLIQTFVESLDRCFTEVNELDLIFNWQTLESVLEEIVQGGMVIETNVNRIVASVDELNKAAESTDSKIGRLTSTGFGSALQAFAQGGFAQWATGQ

Row | binding result [1] | binding result [2] | Binder
1 | binds |  | Vam3 (yeast vacuolar SNARE, AP-3 cargo with dileucine motif) (natural protein, UniProt Q12241 1-283, looked up, Vam3, yeast SNARE; transmembrane domain aa 263–283; source: reconstituted into proteoliposomes or polymer-supported membranes) MSFFDIEAQSSKGNSQQEPQFSTNQKTKELSNLIETFAEQSRVLEKECTKIGSKRDSKELRYKIETELIPNCTSVRDKIESNILIHQNGKLSADFKNLKTKYQSLQQSYNQRKSLFPLKTPISPGTSKERKDIHPRTEAVRQDPESSYISIKVNEQSPLLHNEGQHQLQLQEEQEQQQQGLSQEELDFQTIIHQERSQQIGRIHTAVQEVNAIFHQLGSLVKEQGEQVTTIDENISHLHDNMQNANKQLTRADQHQRDRNKCGKVTLIIIIVVCMVVLLAVLS
2 |  | binds | Vam3 labelled with Atto 647N (natural protein, yeast, UniProt Q12241 1-283, looked up, Atto 647N (Maleimide), Vam3, yeast SNARE; also called prelabeled transmembrane cargo; source: reconstituted into polymer-supported membranes) MSFFDIEAQSSKGNSQQEPQFSTNQKTKELSNLIETFAEQSRVLEKECTKIGSKRDSKELRYKIETELIPNCTSVRDKIESNILIHQNGKLSADFKNLKTKYQSLQQSYNQRKSLFPLKTPISPGTSKERKDIHPRTEAVRQDPESSYISIKVNEQSPLLHNEGQHQLQLQEEQEQQQQGLSQEELDFQTIIHQERSQQIGRIHTAVQEVNAIFHQLGSLVKEQGEQVTTIDENISHLHDNMQNANKQLTRADQHQRDRNKCGKVTLIIIIVVCMVVLLAVLS
